According to the DeepSol protein solubility set:

Assay: soluble on expression in E. coli; label from the status in PepcDB or PDB records

Sequence	soluble on expression in E. coli
MGSDKIHHHHHHMQKLVEQVWDYTKHAKFYSYRPNYAPKTIDMLISLVGKKDIKVADIGAGTGNLSIMLLERGCKVVSVEPNDAMREIGIERTKDQKIDWVRATGLNSTLQNSEFDWVTFGSSFNVMDRNEALEEAHRLLKSEGYFSCMWNHRDLNDPVQKIAEDTIVEFVPNYTRGTRREDQRPIIESRKDLFDNIVYIEEDFYFHQSIENYINAWKSVKNPYWDLETDEGNELFNKISNKISQRLPKEFSIKYTTRCWSAKKI	not soluble
LENPLYYLHNFRQVLNWLQLRYADVLSADEQRFILDFAQLAEPSQALLVRMVMRKGRHFRLSKLSYPEIGDSAAALEPLLALGWVDEQAPLCLEELFGLLQKAEILQCFNGLAAKARKDQWLEELTQQGLAPQAFAQWCPALPDRLLSLTLMPLCDRLRLMFFGNLYQDWSEFVLADLGIYSYEKVEISADARGLRSREDVDGFLYLHECQEAFEAGAELPEVLAHIARFQTLNPWLEKRRAKLLFQLGQQCERLAQWALARQIYQECAYPGARSRLIRVLERSAQYQAALALAEQAAAAPESAAEAQHLLRIMPRLRRKLGGPPAPRAANREVQRLDLCLARDADGLAVELHVQAHLHQPQAPVHYVENSLINSLFGLLCWPAIFAPLPGAFFHPFQRGPVDLFSEDFHQRRSELFQACLAELDDGRYRQSIRQRFVAKWGLQSPFVFWGALSEELLDQALDCLPAEHLKHWFQRLLLDIKANRAGMPDLIQFWPEQKRYRMIEVKGPGDRLQDNQLRWLDFCQEHRMPVAVCYVQWQ	not soluble
MSLSELIFYTNPMSRGRIARWMLEEVGIPYKTEILGFETSMKSPAYRLINPMAKVPAIKHGDTIVTEAAAICAYLADAFPGANLAPTPKARGLYYRWMFFAAGPLEMAASMKAMGFEVPKEKLRMAGCGSYADVMNTLERAVSENRFIAGDLFTAADVYVGAHVGWGLHFGTIEKRPAFTDYMAHLTDRPAFKRAAQLDEEAAKELQAAGEGHHHHHH	soluble
MGSDKIHHHHHHMNAIQCETRTYEREYNTHDHSYGQMLFALHGAMEIQTPVYDTFQLEANFGLYLPPHVNHRFRAVARNEFIVVDIPARFLGDAVTTEQHVALDETWGALCHLFRGEAYQPASSQSLRPLVDYLTSKLAKKTLPASIHYMKQHFSEPLSLETLAAIEHYHPAYYSSWFKGYTGMSPSEYLQKLRVKAAKRLLGETTWSVARISIEVGYTHPSGLVRAFTKVEGMTPSAYRNTLH	not soluble
HMAEIYLAGGCFWGLEEYFSRISGVLETSVGYANGQVETTNYQLLKETDHAETVQVIYDEKEVSLREILLYYFRVIDPLSINQQGNDRGRQYRTGIYYQDEADLPAIYTVVQEQERMLGRKIAVEVEQLRHYILAEDYHQDYLRKNPSGYCHIDVTDADKPLIDAANYEKPSQEVLKASLSEESYRVTQEAATEAPFTNAYDQTFEEGIYVDITTGEPLFFAKDKFASGCGWPSFSRPLSKELIHYYKDLSHGMERIEVRSRSGSAHLGHVFTDGPRELGGLRYCINSASLRFVAKDEMEKAGYGYLLPYLNK	soluble
MIVVFDAQCLLCSGFARFLLKHDRRGVLRFASMQGETGRALLRAADVDPEDVDTVLFVRDGRAWRESAAALRILHALGWPWRLAWLGWAVPLPIRDALYRCVARNRYRWFGCSDTCILPPPGAAQRFLDLEHHHHHH	not soluble
MSLTNHHPSSTGPQHPYRAGWIHFTNVAPILDSLELPPGVTAITGVPTQMNAALLSGEVDIANVSAVEFIRHADTLAALPDFSVAVLGPVYSVNLFHTCPLPELRRVALTSQSAMSVALLEVLLRQKGLSPVLERAEGTAESLLAAGYDGVLRIGDDALREWYGVVGPLTPERTMTSLPHTGRGITVTDLAQEWFDLTGHPFTFAVWAYRKDNPPPAALLQAMREARRRGIGHLAEVSQRHAEKLGLPERVVQHYLWNFRYHLEAPDRLGLREFADLAVPGHAELTFGAREEAEGHHHHHH	soluble
MLTLSFATGTEPNKWFTRFEERTDHGGLRTLSDDDPLSLLVDATADLALVRLPDPRMDNDDTVHVVELYQESMGVALPKEHTLTLLDVVEPSDLDGEIINYITPPSLEVDVAAVRAQLQMVAANVGVVIAPRPLLKVLSGKLVEHREFSDPQRYGQARTRIALVWKKERDGEDIQDFVGIAKGRTVQSSRQSNAKKVSAREKTLAKQKRRKEAGKKPVRKGGRRKR	not soluble
MQLTKLTQEIFDHLYRDISEFRQTFDLPVAAPQTLNSQADTLHTSLAIEELTELAQADNKTEQADAIVDTVYVLMGRLVHLGHAKVEDNLAISYLIDLLLHVAANLNIDFLPCWDEVHSSNMSKVCRSEQEYLDTEKFYAEQGVKLMAVHQGEYIIAKCAEDFISESKTVRQGKVLKSVYYRPANLAALTQ	not soluble
MSLATIKDIARRAGVIPSTVNRTLKDNPSISKETKAKVRAAMDELGYVPNSAAQMLATGLTHSLGVVLPPLTDRENISQPFYMEIITAINEEASSNSQVVSIATGATLEELVKQVELMHRQKRADGFIILYSETNDPVKDYLLKEKVPSVVVGAAVDNNDKVTYIDNDNKELGQEAVNFLRAKGHQKIGFVTDDLFGQVGQEHYQGYIEATNEFNLETYPELVFSSRVIDSLIESLQSYQLTALIVKDDLIALRFIHWLNNQGIRIPEDYAIISFNNSIFAEIMYPFLTTYDINIKELGKESVQRLLDLLKNPQTKAQKITIPFRLIERESVSMGEGHHHHHH	soluble
GSHMGGRLEGLTQDLRQLQESEQQLDHLMNICTTQLRLLSEDTDSQRLAYVTCQDLRSIADPAEQMVMVIKAPPETQLQAVDSSENFQISLKSKQGPIDVFLCPEE	soluble
MKDQLGFRIVLCSAVFIILTQNRALADLDSESHEVNSESVGEEQWEMVQRKGMQFTLNGQPFYVNGFNTYWMMTLAADNSTRGKVTEVFQQASAVGMTVGRTWAFNDGQWRALQKSPSVYDEEVFKALDFVLSEARKYKIRLILSLVNNWDAYGGKAQYVKWGNASGLNLTSDDDFFTNPTLRNFYQSHVRTVLNRVNTFTNITYKNDPTIFAWELMNEPRCPSDPSGDKLQSWIQEMAVFVKSLDAKHLVEIGLEGFYGPSAPARTRFNPNPYAAQVGTDFIRNNQVLGIDFASVHVYPDSWISPAVSNSFLEFTSSWMQAHVEDAEMYLGMPVLFTEFGVSAHDPGFNTSFRDMMLNTVYKMTLNSTRKGGAGAGSLVWQVFPQGAEFMDDGYAVYLTRAHTASKIISLQSKRLAIFNSLCSWRCRWGCKKKNQTALDALLSHDEL	soluble
MSNAREIRSKVQSVKNTQKITGAMELVAASKMRGAIVKMNNVRPYVESANTIIKNVTAASIDYPNPYLFDRDVKRVGYIVISTDRGLCGGLNINLFKHVLKEIKNNIEDRVGVDVCVIGSKAENFFAKLKDVNIVATAHYNDKDKEGSIRAIGGAVKVMLDKFTAGEIDRLYMSSNQFVSTIKQRPRLQTLLPIQDIFSAEEIKANKEKATKGHWDYIYERDIEEVLNALFIRYIEAQVRGAILENAACEQAARMMAMKNATDNASDIIDQLKLDYNKVRQAMITQELAEICSGAAAV	not soluble
MGCGFSRQHVVKTNVSSFDRELLDLKIQRDSLQQYEQRLSDSLKNYIKLARRLVAENQRQQALVVLQVKHALQKSIEKAQNMRFNLEQVLSEIELKQIETDYVLKLRTGTKLLQSIQKTLSIEEIEHLLEETKEAIEFQNKVTEVLGSFSLMEIDESCEEELEQLETAMFPPVPKRLEKTMTPQVTENMQVKSETAKEYSKQESILLPS	soluble
MNTGFANPSAKPDDPTDPRARRDHGGGLDGAMRRYGGQRADWIDLSTGINPLPYPVGTLLPEDWTALPDHGAFGELIRAARAFWHLPEAAAVLPAPGASALIARIPALADPARVRITQPTYNEHAAAFTAHGWQVVADGPAEARVIVHPNNPDGRIWSEAEAEGALCVIDESFGDVAPETSLAHLAARPGTVVLKSFGKFWGLAGLRLGFAVALPETIARLNDLTGPWAVSGPALRIGTRALSDTAWAEETRIRLAQEAARLDTLMSAGGVQVLGGTDLFRLYQVDDAAAWQDRLARARIWSRIFPYSDRFLRLGLPPAEGWDRLESAL	not soluble
QIVPLFFQDVTNQPIEGMKPRSALEVEGRDVFIANGCVGCHSQMIRPLRAETERYGHYSVAGESVWDHPFLWGSKRTGPDLARIGGRYSDEWHRVHLNNPRDLVPASIMPAYPFLAGKHIDSTQTAKKLQVLRTLGTPYSDADITGAAAAVQGKTEMDALVAYLQGLGTLIKSKR	not soluble
MAKQSGGKPQIDEDFMKEIISQGLPVKKQETPLVTVETPDKPETVNKEEIKAEPKEEKAVKEPARRKKNTPGDYRETYFMRVDLTDRQPLYVSRTTHEKLMKIVTVIGGRKATVSSYVENILLRHFDQFQDEINELYESKFEKPF	soluble
GVFTYESEFTSEIPPPRLFKAFVLDADNLVPKIAPQAIKHSEILEGDGGPGTIKKITFGEGSQYGYVKHKIDSIDKENYSYSYTLIEGDALGDTLEKISYETKLVASPSGGSIIKSTSHYHTKGNVEIKEEHVKAGKEKASNLFKLIETYLKGHPDAYN	soluble
MTKKELRAQIRQRNREMLAAENRERWSQSIIERIRRLDIFADAKRIGLYHALPDEPDLTGLLREYVQTKQLFIPRVEGDDIAFYAYTGEADLEAEGAYGIAEPTADAATAILPSSLDLLLVPGVAFDRKGSRMGRGKGYYDRFLPATQVRLIGVTFSYRLLEELPTDPWDRPMDGVITESETLFCLEHHHHHH	soluble
MSLRDTVLVVDDEPDSLRFLADTLEGAGIRVLVAISGDAALDVLQHVEPDLILMDGVMPGRSGFETTACIKARPELAHVPVVFMTGLHDDEHVVRGFEVGGVDYLRKPVNVQELLARVRVHVGNARAIQAGAAGLDATGRLMMATDLQGGLLWCTPLAERAIARACPGWSRDAGALPDALREPVRKMLGRGAAQSGSVKVEQVDGTMELVVIAQYRGQEVLIRVNELNPKADIALLQQKLGLTDREAEVLLWTSYGKSNATISEVLAISPRTVQKHLERIYEKLGIETRAAAAAVAIKALGNEGHHHHHH	soluble
MRKKPLTIFSDGTLTRRENTLYFESAKGRKPLAIEGIYDIYIYGHVNITSQALHYIAQKGILIHFFNHYGYYDGTFYPRETLLSGDLIIRQAEHYLNKEKRLFLAKSFVTGGTKNMERNLKNWGIKAKLSDYLDELNDARKITEIMNVEARIRQEYYAKWDENLPEEFKIVKRTRRPPKNEMNALISFLNSRLYATIITEIYNTQLAPTISYLHEPSERRFSLSLDLSEIFKPIIADRVANRLVKKGSLKKEHFREDLNGVLLTEEGMKIVTKAYNEELQKSVKHPKIGSNVTRQRLIRLEAYKLIKHLVGVEEYKPLVAWF	soluble
MGHHHHHHSHMAQLENQILETLKPLIDANTGKSYVAAKNVKNLKCGDAEISLDVVLAYPAKSQFDAVRQQFEAALAPLAEGRAIKIAVSAQIVSHSAQRGVPLLPGVKNVIAVASGKGGVGKSTTAANLALALADEGARVGLLDADIYGPSQPLMMGLQGQRPETADGKLTPLSNHGIQTMSIGYLVDADQAMVWRGPMVSQALQQLLNDTRWDDLDYLVIDMPPGTGDVQLTLSQKVPVTGALIVTTPQDIALLDARKGVTMFQKVGVPILGLVENMAIHVCSNCGHAEHIFGEGGAVKMAQDFGVELLGSLPLDLAIRQAVDEGRPSVAADPSGKPAELYRAIARRVAVKVGEKAQDFSGKFPKIVIQNN	soluble
